Measurements from patent publication US20230220074A1 (Alector, published 2023).
Changes are numbered by the printed parent chain. Each block holds one binder with its values, some of them ahead of it.

Legend:
[1] = biological target: T1, murine PILRA (mouse, UniProt Q2YFS3 32-302); test: flow cytometry, conditioned medium on 293 cells expressing the target
T1 construct: Ectopically expressed on 293 cells; also called mPILRA; mouse PILRA
Experimental: (§1) Antibodies against human PILRA were generated as follows. […] PILRA^{-/-} PILRB1^{-/-} PILRB2^{-/-} mice were immunized with human PILRA protein, and hybridomas prepared using standard methods. 300 conditioned media samples containing antibodies were assessed for binding to parental 293 cells or 293 cells ectopically expressing hPILRA, hPILRB, cPILRA, mPILRA, or mPILRB by FACS. […] Six antibodies were identified as human PILRA binders using a cutoff of greater than 5-fold binding. […] No antibody was identified that bound mouse PILRA.

[2] = biological target: T2, murine PILRB (mPILRB1) (mouse, UniProt Q2YFS2 29-224); test: flow cytometry, hybridoma conditioned medium on 293 cells expressing the target; MFI relative to 293 parental cells
T2 construct: whole, on cells; Ectopically expressed on 293 cells; also called mouse PILRB
Experimental: as §1

[3] = biological target: T1, murine PILRA; test: as above
Experimental: as §1

[4] = biological target: T3, human PILRA (human, UniProt Q9UKJ1 20-303); test: as above
T3 construct: also called hPILRA
Experimental: as §1

[5] = biological target: T4, cynomolgus monkey PILRA (cynomolgus monkey); test: as above
T4 construct: Ectopically expressed on 293 cells; also called cPILRA
Experimental: as §1

[6] = biological target: T5, human PILRB (human, UniProt Q9UKJ0 20-227); test: as above
T5 construct: Ectopically expressed on 293 cells; also called hPILRB
Experimental: as §1

[7] = biological target: T6, soluble human PILRA hIgG1 Fc construct (human); test: flow cytometry; blocking of PILRA Fc binding to human CD3+ T cells, 3 donors, average ± SEM
T6 construct: also called PILRA Fc; PILRA-Fc
Experimental: Purified anti-hPILRA antibodies were evaluated for their ability to block binding of PILRA Fc to human CD3+ T cells from 3 separate donors in order to calculate the ligand blocking potency of these antibodies.

T4 sequence (chain, as listed by the source): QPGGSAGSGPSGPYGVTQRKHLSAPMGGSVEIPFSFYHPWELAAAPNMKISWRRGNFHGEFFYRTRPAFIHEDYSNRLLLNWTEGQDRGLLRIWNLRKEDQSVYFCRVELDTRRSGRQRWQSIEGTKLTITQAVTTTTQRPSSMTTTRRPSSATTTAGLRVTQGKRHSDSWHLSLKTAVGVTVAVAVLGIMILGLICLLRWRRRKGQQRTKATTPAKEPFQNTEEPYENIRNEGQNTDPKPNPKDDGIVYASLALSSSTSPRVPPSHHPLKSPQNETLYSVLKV
T3 sequence (Q9UKJ1 20-303): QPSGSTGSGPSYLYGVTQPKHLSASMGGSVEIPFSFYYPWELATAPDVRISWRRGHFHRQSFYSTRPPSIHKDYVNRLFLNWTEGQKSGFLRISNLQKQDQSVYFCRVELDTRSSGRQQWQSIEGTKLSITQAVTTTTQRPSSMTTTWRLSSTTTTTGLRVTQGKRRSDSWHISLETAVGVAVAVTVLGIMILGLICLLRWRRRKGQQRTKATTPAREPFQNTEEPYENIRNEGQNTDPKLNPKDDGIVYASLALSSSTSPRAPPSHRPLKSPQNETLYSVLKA
T2 sequence (Q2YFS2 29-224): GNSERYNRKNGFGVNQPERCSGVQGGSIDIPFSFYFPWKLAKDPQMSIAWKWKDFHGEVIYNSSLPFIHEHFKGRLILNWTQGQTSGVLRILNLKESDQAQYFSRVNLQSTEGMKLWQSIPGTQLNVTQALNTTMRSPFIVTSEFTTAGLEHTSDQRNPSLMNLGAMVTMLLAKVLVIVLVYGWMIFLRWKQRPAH
T6 sequence (chain, as listed by the source limits assumed): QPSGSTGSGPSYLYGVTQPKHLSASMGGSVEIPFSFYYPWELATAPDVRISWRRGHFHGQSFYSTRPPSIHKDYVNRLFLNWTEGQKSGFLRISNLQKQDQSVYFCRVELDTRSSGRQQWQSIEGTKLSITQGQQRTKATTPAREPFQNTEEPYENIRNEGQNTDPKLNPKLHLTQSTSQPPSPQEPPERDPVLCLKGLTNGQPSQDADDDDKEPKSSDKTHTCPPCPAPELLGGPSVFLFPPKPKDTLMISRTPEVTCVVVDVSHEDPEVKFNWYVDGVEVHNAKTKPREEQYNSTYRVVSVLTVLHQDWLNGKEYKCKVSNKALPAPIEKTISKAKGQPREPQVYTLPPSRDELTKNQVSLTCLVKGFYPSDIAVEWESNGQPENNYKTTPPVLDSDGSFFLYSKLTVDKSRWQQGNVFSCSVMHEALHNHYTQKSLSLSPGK
T5 sequence (Q9UKJ0 20-227): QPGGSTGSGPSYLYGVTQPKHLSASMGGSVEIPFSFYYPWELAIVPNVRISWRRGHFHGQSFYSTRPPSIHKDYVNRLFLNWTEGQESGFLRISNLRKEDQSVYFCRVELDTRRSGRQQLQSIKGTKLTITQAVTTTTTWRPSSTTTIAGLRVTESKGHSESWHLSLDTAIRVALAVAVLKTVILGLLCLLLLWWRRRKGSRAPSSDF
T1 sequence (Q2YFS3 32-302): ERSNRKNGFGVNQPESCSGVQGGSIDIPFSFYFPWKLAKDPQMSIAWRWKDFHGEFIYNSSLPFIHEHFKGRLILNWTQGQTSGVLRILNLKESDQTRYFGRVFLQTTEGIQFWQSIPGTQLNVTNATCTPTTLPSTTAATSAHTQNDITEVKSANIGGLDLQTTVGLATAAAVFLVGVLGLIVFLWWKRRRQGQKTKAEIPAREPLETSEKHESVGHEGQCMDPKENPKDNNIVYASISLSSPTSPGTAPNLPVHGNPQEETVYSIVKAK

MFI relative to 293 parental cells [2]: 0.5 fold over 293 parental cells
MFI relative to 293 parental cells [3]: 0.4 fold over 293 parental cells
MFI relative to 293 parental cells [4]: 104 fold over 293 parental cells
MFI relative to 293 parental cells [5]: 0.5 fold over 293 parental cells
MFI relative to 293 parental cells [6]: 1.3 fold over 293 parental cells
IC50 [7]: 1.9 nM
B3: hPA-005 (antibody, V domains shown)
VH: QVILKESGPGILQSSQTLSLTCSFSGFSLSTFGMGVGWIRQPSGKGLESLAHIWWDDDKFYNPALKSRLTISKDTSKSQVFLKIANVDTADIATYYCTRIEDYGSYFAYWGQGTTLTVSS
VL: DVQMNQSPSSLSASLGDPITITCHASQNIHVWLNWYQQRPGNIPRLLIYKASNLHTGVPSRFSGSGSGTGFTLTISSLQPEDIATYYCQQGQSYPYTFGGGTKLEIK
notes: Mouse hybridoma antibody, tested as conditioned medium or purified
binding result [1]: no binding (tested: cutoff of greater than 5-fold binding)

MFI relative to 293 parental cells [2]: 0.3 fold over 293 parental cells
MFI relative to 293 parental cells [3]: 0.3 fold over 293 parental cells
MFI relative to 293 parental cells [4]: 133 fold over 293 parental cells
MFI relative to 293 parental cells [5]: 0.3 fold over 293 parental cells
MFI relative to 293 parental cells [6]: 1.2 fold over 293 parental cells
IC50 [7]: 0.75 nM
B4: hPA-002 (antibody, V domains shown)
VH: QVTLQESGPGILQPSQTLSLTCSFSGFSLSTFGMGVGWIRQPSGKGLEWLAHIWWDDDKYYNPALKSRLTISKDTSKNQVFLKIASVDTADIATYYCARVEDYGNPFDYWGQGTTLTVSS
VL: B3 VL with V2I, P18T, R39K, R45K, L73V, Y96L, G100A, I106L
notes: Mouse hybridoma antibody, tested as conditioned medium or purified; also called hPA-002 A647
binding result [1]: no binding (tested: cutoff of greater than 5-fold binding)

Continued, binder first:

B1: hPA-001 (antibody, V domains shown)
VH: B4 VH with Q5K, S30T, T75I, S86N, I92T, V100I
VL: B3 VL with V2I, P18T, N34S, R39K, R45K, Y96L, G100A, I106L
notes: Mouse hybridoma antibody, tested as conditioned medium
binding result [1]: no binding (tested: cutoff of greater than 5-fold binding)
MFI relative to 293 parental cells [2]: 0.5 fold over 293 parental cells
MFI relative to 293 parental cells [3]: 0.5 fold over 293 parental cells
MFI relative to 293 parental cells [4]: 131 fold over 293 parental cells
MFI relative to 293 parental cells [5]: 0.5 fold over 293 parental cells
MFI relative to 293 parental cells [6]: 1.3 fold over 293 parental cells

B2: hPA-004 (antibody, V domains shown)
VH: QVTLKESGPGMLQPSQTLSLACSFSGFSLNSFGVAVGWIRQPSGKGLEWLAHIWWDDDKSYNPALKSRLTISKDTSKNQVFLKLANVDTADTATYYCTRIADYGNHFDYWGQGTALTVSS
VL: B3 VL with V2I, P18T, I29S, N34S, R39K, R45K, S77G, S93T, Y96F, G100S
notes: as for B3
binding result [1]: no binding (tested: cutoff of greater than 5-fold binding)
MFI relative to 293 parental cells [2]: 0.6 fold over 293 parental cells
MFI relative to 293 parental cells [3]: 0.6 fold over 293 parental cells
MFI relative to 293 parental cells [4]: 83.9 fold over 293 parental cells
IC50 [7]: 1.7 nM
